According to paper PMC5492076, “β-Cyanoalanine Synthases and Their Possible Role in Pierid Host Plant Adaptation” (Insects, 2017):

Substrate: N[C@@H](CS)C(=O)O
Assay: colorimetric sulfide formation, Michaelis-Menten fit
Assay type: biochemical, Aporia crataegi
Settings: 6 mM KCN, 20 µM pyridoxal-5'-phosphate, Tris-HCl pH 8.5, 31 °C, 10 min
Source text: colorimetric sulfide formation, Michaelis-Menten fit on AcrBSAS3

B1: AcrBSAS3 (Aporia crataegi) (protein)
chain: MTNAISVSNEIKASALELIGNTPLLALDRLHPGPGRILVKCEFMNPGGSLKCRSSLHMIQKARERGELKPGGDVVEVTSGNQGCGLGVVCSVLGHPLTVTMSKGNSIQRALHMEALGAKCIRYPLVKGTYGNVTFADVEPALEGAMKMSEETGAFFVKQMANPDNIEAHYETTGPEIWRQSGHRVDAFVTAVGTSGTFTGVSKYLKEQNPEIQCFVVEPEGSQPLKGCPITKPLHMLQGASYGVVPDLFNPDLMEDSISVTDEESVHYKDLLGTKEGLFVGYTSGANVAAAVKLLNSGKLPKDAWVVTILSDTGLKYTPVPDNLIE
notes: N-terminal Strep-tag, E. coli BL21(DE3) pLysS; Strep-Tactin purified
Q: For B1, which Km is on record?
A: The Km was 1.31 (±0.08) mM.

Q: And the Vmax?
A: The Vmax was 1.12 µmol/min/mg.
